In the supplement of paper PMC10899765:

How the values were obtained:
Details in all cases: 20 nM; 72 h
MCF10A [1] = assay: percent viability (nuclei count relative to siNT); higher = more viable cells
Procedure: (§1)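 After 72 h, cells were fixed and stained with Hoechst and anti-fibrillarin, and nucleoli per nucleus were counted with CellProfiler. Values are plate-adjusted percent effect for the one-nucleolus and 5+ nucleoli phenotypes, normalised to siNT (0%) and to the positive controls siNOL11 or siKIF11 (100%), as the mean of biological triplicates. Percent viability is the nuclei count relative to siNT.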

MCF10A [2] = assay: 5+ nucleoli phenotype percent effect (relative to siNT 0% and siKIF11 100%); higher = more cells with five or more nucleoli
Procedure: as §1

MCF10A [3] = assay: one-nucleolus phenotype percent effect (relative to siNT 0% and siNOL11 100%); higher = more cells with one nucleolus (ribosome biogenesis inhibition)
Procedure: as §1

Sequence	percent viability (MCF10A [1])	5+ nucleoli phenotype percent effect (MCF10A [2])	one-nucleolus phenotype percent effect (MCF10A [3])
CUGGCAGGGGGAGAGGUA [hsa-miR-7150]	43.9%	0.85%	46.7%
CGGCUCUGGGUCUGUGGGGA [hsa-miR-760]	53%	-2.61%	7.07%
CUCUAGAGGGAAGCGCUUUCUG [hsa-miR-522-5p]	40.6%	0.209%	-5.68%
GCAGCAGAGAAUAGGACUACGUC [hsa-miR-922]	108%	9.43%	-15%
UCCAUUACACUACCCUGCCUCU [hsa-miR-885-5p]	71.4%	-8.23%	-5.62%
UGAGUGCCGGUGCCUGCCCUG [hsa-miR-1909-5p]	46.8%	-15.5%	18.8%
AUUCUAAUUUCUCCACGUCUUU [hsa-miR-576-5p]	100%	28.2%	1.07%
UGUAGAUACGAGCACCAGCCAC [hsa-miR-3935]	38.5%	20.9%	-7.2%
AGGGCCGAAGGGUGGAAGCUGC [hsa-miR-6877-5p]	41.7%	-6.96%	10.5%
UGACAACUAUGGAUGAGCUCU [hsa-miR-549a]	77.8%	15.5%	-18.5%
UAGUGGUCAGAGGGCUUAUGA [hsa-miR-6718-5p]	18.9%	-44.7%	39.8%
UCGGGGAGUCUGGGGUCCGGAAU [hsa-miR-6889-5p]	30.7%	3.52%	6.17%
GAACGCCUGUUCUUGCCAGGUGG [hsa-miR-614]	72.8%	-0.465%	-10.6%
UCUCACACAGAAAUCGCACCCGU [hsa-miR-342-3p]	78.4%	-4.22%	-2.78%
GUGGACCUGGCUGGGAC [hsa-miR-4535]	65.5%	17.4%	-11%
UGGCAGGGAGGCUGGGAGGGG [hsa-miR-1207-5p]	24.4%	-30.5%	24.5%
UUGGGGUUUGGGGUGCAGACAUUGC [hsa-miR-6855-5p]	9.03%	-2.12%	34.4%
CGCCCCUCCUGCCCCCACAG [hsa-miR-4749-3p]	115%	64.3%	-18.4%

Sequence	percent viability (MCF10A [1])	5+ nucleoli phenotype percent effect (MCF10A [2])	one-nucleolus phenotype percent effect (MCF10A [3])
CCUCUAAAGGGAAGCGCUUUCU [hsa-miR-520f-5p]	119%	57.3%	-26.3%
GGGAAGAGCUGUACGGCCUUC [hsa-miR-6077]	37.4%	-35.5%	32.5%
UUUGGCACUAGCACAUUUUUGCU [hsa-miR-96-5p]	28.4%	16.6%	19.4%
UUCAAGUAAUUCAGGAUAGGU [hsa-miR-26b-5p]	149%	45.6%	-8.67%
UUGGGGUGGUCGGCCCUGGAG [hsa-miR-6737-5p]	7.13%	-19.8%	48.7%
CACUGUGGGUACAUGCU [hsa-miR-4318]	35.1%	-33%	65.2%
CGCGGGUCGGGGUCUGCAGG [hsa-miR-3621]	57.8%	-3.13%	-5.2%
AAAGACAUAGGAUAGAGUCACCUC [hsa-miR-641]	213%	1.49%	-15.4%
CAGUGCAAUGAUAUUGUCAAAGC [hsa-miR-301b]	95.6%	45.2%	-11.1%
AGUGGACCGAGGAAGGAAGGA [hsa-miR-4800-5p]	44.8%	-9.53%	2.75%
AAAAGCUGGGUUGAGAGGGCGA [hsa-miR-320a]	38.1%	-11.8%	18.7%
GCUGGUGACAUGAGAGGC [hsa-miR-4299]	42.6%	34.1%	-5.58%
GGGGAGGUGUGCAGGGCUGG [hsa-miR-6799-5p]	93.2%	37%	-29.7%
UGGGGUGCCCACUCCGCAAGUU [hsa-miR-4664-5p]	9.8%	-17.8%	23.6%
UAGCAGCACAGAAAUAUUGGC [hsa-miR-195-5p]	26.4%	-10.1%	13.4%
AUUAAGGACAUUUGUGAUUGAU [hsa-miR-4477b]	37.8%	7%	-4.92%
CCACUUGGAUCUGAAGGCUGCCC [hsa-miR-3614-5p]	32.9%	-32.4%	36.9%
UGGGGCGGAGCUUCCGGAGGCC [hsa-miR-3180-3p]	12.9%	0.481%	8%
